Data as given in patent US20080241130A1 (published 2008).

Experiments:
[1] = biological target: T1, human IL-17RC.Fc (human); experiment: indirect sandwich ELISA: IL-17RC.Fc captured on goat anti-human IgG-Fc, biotinylated cytokine titrated, Poly-HRP streptavidin
T1 construct: also called hIL-17RC.Fc
Protocol: (§1) Binding of human IL-17F, hIL-17A or hIL-17F/IL-17A to human IL-17R.Fc (hIL-17R.Fc) and IL-17RC.Fc (hIL-17RC.Fc) was determined by indirect sandwich ELISA. ELISA plates (Costar, Cambridge Mass.) were coated overnight with 10 μg/ml goat anti-human IgG-Fc (Bethyl Laboratories, Montgomery, Tex.). Human IL-17R.Fc or hIL17-RC.Fc was then loaded at 6 ng/ml and 30 ng/ml, respectively, for 3 hours, followed by serial dilutions of biotinylated IL-17A, IL-17F or IL-17F/IL-17A for 2 hours. The plate was developed with Poly-HRP Streptavidin (Pierce Biotechnology, Rockford, Ill.) and TMB Substrate (KPL Labs, Gaithersburg, Md.).
(§2) The binding of hIL-17F, hIL-17A or hIL-17F/IL-17A to hIL-17R.Fc and/or hIL-17RC.Fc was evaluated by indirect sandwich ELISA. All three cytokines bound to hIL-17RC.Fc with approximately the same EC₅₀ of 18-25 ng/ml (FIG. 1B). However, the EC₅₀ for the three cytokines were different for binding to hIL-17R.Fc. The tightest binding occurred between hIL-17A and hIL-17R.Fc with an EC₅₀ of 25 ng/ml. Human IL-17F bound weakly to hIL-17R.Fc with an EC₅₀ greater than 2000 ng/ml.

[2] = biological target: T2, human IL-17R.Fc (human); experiment: indirect sandwich ELISA; receptor.Fc captured on goat anti-human IgG-Fc, biotinylated cytokine titrated
T2 construct: also called hIL-17R.Fc; IL-17RA.Fc
Protocol: as §1, §2

T2 sequence (chain, as listed by the source limits assumed): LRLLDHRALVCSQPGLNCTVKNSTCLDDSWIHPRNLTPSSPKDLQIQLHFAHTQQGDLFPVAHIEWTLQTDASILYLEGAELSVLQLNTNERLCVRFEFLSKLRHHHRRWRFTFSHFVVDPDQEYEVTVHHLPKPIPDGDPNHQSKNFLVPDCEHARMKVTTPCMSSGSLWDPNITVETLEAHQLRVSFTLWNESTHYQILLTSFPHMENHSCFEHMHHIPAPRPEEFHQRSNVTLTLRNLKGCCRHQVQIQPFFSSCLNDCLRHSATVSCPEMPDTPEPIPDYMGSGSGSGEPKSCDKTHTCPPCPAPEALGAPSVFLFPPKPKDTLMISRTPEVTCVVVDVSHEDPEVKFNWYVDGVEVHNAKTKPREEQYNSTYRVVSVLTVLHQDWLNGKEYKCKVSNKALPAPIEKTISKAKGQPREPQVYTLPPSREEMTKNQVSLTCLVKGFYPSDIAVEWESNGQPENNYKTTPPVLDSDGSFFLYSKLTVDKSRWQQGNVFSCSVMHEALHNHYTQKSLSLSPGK
T1 sequence (chain, as listed by the source limits assumed): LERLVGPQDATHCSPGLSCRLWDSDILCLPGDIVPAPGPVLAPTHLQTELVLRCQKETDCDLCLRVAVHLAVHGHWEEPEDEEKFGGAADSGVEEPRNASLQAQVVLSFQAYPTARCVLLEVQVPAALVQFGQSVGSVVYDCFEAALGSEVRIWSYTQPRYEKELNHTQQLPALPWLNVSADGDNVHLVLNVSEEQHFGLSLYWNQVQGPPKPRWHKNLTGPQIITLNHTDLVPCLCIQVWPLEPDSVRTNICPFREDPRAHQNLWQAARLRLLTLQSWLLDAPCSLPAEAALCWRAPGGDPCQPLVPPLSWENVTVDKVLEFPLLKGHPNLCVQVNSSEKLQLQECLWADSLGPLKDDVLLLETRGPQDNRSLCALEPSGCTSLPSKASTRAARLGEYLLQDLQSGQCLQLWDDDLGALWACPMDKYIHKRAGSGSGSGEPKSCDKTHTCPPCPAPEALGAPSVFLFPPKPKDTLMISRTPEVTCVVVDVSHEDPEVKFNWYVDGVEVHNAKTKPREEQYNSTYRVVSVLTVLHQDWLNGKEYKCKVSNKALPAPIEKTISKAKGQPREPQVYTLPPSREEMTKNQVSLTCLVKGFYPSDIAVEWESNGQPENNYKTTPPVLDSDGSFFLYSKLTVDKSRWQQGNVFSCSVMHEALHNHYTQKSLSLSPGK

B1: human IL-17F (ligand)
chain: RKIPKVGHTFFQKPESCPPVPGGSMKLDIGIINENQRVSMSRNIESRSTSPWNYTVTWDPNRYPSEVVQAQCRNLGCINAQGKEDISMNSVPIQQETLVVRRKHQGCSVSFQLEKVLVTVGCTCVTPVIHHVQ
modifications: biotinylated in the ELISA (FluoReporter Mini-biotin-XX kit); sites not stated
notes: Homodimer; also called hIL-17F
EC50 (read off the curve) [1]: ~0.02 µg/mL
EC50 [2]: > 2 µg/mL
